According to PMC7966797, “A cold shock protein promotes high-temperature microbial growth through binding to diverse RNA species”:

What was measured:
[1] = target: T1, CspL (Bacillus coagulans 2-6, UniProt A0A0C5C4D7 1-67); assay: BLI; BLI, streptavidin sensor with 5'-biotin oligo; 20 mM PBS pH 7.4, 100 mM NaCl, 0.1% BSA, 0.02% Tween 20; CspL 20 ug/ml; temperature not in the material; details: protein: recombinant, tags: His, label: 5'-biotin
[2] = target: T1, CspL; assay: BLI; 2100, 210 nM CspL; binding lost at 21 nM; BLI, streptavidin sensor with 5'-biotin oligo; 20 mM PBS pH 7.4, 100 mM NaCl, 0.1% BSA, 0.02% Tween 20; CspL 20 ug/ml; temperature not in the material; details: protein: recombinant; tags: His; label: 5'-biotin

Binder	binding result [1]	binding result ([1]; blunt)	also measured
CCGCAGATCCAGACGAGAGC (ssDNA) [ssDNA random]	binds	–	–
GAGACCGGAATTCGAGCT (ssDNA) [18 nt ssDNA (ssDNA 5)]	–	–	binding result [2]: binds
dsDNA gaaC (dsDNA) DNA 1: CCGCAGAGAACGACGAGAGC DNA 2: GCTCTCGTCGTTCTCTGCGG	–	no binding	–
dsDNA random (dsDNA) DNA 1: CCGCAGATCCAGACGAGAGC DNA 2: GCTCTCGTCTGGATCTGCGG	–	no binding	–
CCGCAGAGAACGACGAGAGC (ssDNA) [ssDNA gaaC]	binds	–	–
